# Laboratory results published in patent US20240270857A1 (CHIA TAI TIANQING PHARMACEUTICAL GROUP, published 2024).
# Where two headings read alike, the source gives them in different places.
# T1: human IL-36R overexpressed on 293T-hIL36R-NFκB cells (human, UniProt Q9HB29 20-575)
# T1 sequence: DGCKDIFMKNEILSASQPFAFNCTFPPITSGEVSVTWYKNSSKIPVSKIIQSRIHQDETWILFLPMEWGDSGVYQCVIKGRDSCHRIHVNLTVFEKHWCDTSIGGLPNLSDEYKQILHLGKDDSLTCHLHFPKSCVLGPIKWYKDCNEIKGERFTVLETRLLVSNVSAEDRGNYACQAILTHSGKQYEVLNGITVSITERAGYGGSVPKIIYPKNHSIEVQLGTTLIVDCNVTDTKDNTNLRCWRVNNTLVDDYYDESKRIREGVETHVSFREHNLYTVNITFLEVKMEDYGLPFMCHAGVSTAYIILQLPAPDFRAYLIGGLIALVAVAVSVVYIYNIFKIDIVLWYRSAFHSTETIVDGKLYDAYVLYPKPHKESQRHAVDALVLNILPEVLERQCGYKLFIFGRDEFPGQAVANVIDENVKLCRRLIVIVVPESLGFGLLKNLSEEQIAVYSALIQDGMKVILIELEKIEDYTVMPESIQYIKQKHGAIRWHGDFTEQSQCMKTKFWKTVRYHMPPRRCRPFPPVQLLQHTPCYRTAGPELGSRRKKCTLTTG
# T2: IL-36R naturally expressed on OVCAR8 cells and on normal human epidermal keratinocytes (NHK cells) (human, UniProt Q9HB29 20-575)
# T2 sequence (looked up): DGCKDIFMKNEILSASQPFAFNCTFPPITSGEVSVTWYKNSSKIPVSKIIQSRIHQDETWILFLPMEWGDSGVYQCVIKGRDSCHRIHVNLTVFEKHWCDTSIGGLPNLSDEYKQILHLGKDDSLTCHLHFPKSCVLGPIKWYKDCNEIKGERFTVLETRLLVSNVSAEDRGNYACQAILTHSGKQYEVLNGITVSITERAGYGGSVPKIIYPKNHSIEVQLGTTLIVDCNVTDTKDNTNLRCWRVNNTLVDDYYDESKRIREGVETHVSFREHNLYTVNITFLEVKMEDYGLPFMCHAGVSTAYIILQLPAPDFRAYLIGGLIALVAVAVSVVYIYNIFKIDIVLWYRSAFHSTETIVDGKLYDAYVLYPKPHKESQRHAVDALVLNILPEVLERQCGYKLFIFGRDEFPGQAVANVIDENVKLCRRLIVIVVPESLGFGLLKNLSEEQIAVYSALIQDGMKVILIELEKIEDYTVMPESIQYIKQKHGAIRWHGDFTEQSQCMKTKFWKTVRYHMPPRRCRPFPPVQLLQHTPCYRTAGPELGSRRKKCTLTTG
# T3: cynomolgus IL-36R overexpressed on 293T-CynoIL36R-NFκB cells (cynomolgus monkey)
# T3 chain: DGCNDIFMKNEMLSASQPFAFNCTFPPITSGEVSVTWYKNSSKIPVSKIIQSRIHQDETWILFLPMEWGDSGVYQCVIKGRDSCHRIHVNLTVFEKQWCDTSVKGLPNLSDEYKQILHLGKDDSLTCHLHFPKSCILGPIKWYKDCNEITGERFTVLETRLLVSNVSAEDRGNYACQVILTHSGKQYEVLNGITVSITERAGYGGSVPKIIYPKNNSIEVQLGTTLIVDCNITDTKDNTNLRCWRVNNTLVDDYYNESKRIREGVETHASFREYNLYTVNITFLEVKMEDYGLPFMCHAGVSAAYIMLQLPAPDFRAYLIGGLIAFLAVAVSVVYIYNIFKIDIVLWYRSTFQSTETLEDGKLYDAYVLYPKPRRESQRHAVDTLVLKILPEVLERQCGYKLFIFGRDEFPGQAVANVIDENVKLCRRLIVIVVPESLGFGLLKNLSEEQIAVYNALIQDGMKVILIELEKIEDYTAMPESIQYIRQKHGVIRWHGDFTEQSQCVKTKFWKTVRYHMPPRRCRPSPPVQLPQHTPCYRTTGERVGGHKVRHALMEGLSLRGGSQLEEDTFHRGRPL
# Legend:
# [1] = molecular target: T1, human IL-36R overexpressed on …; experiment: cell-based or functional assay
# [2] = molecular target: T2, IL-36R naturally expressed on OVCAR8 …; experiment: cell-based or functional assay
# [3] = molecular target: T1, human IL-36R overexpressed on …; experiment: cell-based or functional assay; remark: listed apart in the source
# [4] = molecular target: T2, IL-36R naturally expressed on OVCAR8 …; experiment: cell-based or functional assay; remark: listed apart in the source
# [5] = molecular target: T3, cynomolgus IL-36R overexpressed on …; experiment: cell-based or functional assay
# [6] = molecular target: T1, human IL-36R overexpressed on …; experiment: cell-based or functional assay; remark: listed apart in the source
# [7] = molecular target: T2, IL-36R naturally expressed on OVCAR8 …; experiment: cell-based or functional assay; remark: listed apart in the source
# [8] = molecular target: T1, human IL-36R overexpressed on …; experiment: cell-based or functional assay; remark: listed apart in the source
# [9] = molecular target: T1, human IL-36R overexpressed on …; experiment: FACS on 293T-hIL36R-NFκB cells, ratio of MFI to background MFI
# Protocol: After the cells was washed with PBS, the cells were resuspended with 100 μL of PBS and then the fluorescence signal was detected using a flow cytometer (BD, Accuri C6). […] The ratio was the ratio of mean fluorescence intensity (MFI) of the experimental group/the background MFI, and the resulting data were analyzed using GraphPad Prism.
# [10] = molecular target: T2, IL-36R naturally expressed on OVCAR8 …; experiment: cell-based or functional assay; remark: listed apart in the source
# [11] = molecular target: T2, IL-36R naturally expressed on OVCAR8 …; experiment: cell-based or functional assay; remark: listed apart in the source
"IC50; NFκB-luciferase reporter in 293T-hIL36R-NFκB cells stimulated with hIL36γ, inhibition rate % [1]","IC50; IL-8 production of OVCAR8 cells stimulated with hIL36α, inhibition rate % [2]","IC50; NFκB-luciferase reporter in 293T-hIL36R-NFκB cells stimulated with hIL36α, inhibition rate % [3]","IC50; IL-8 production of OVCAR8 cells stimulated with hIL36γ, inhibition rate % [4]","IC50; NFκB-luciferase reporter in 293T-CynoIL36R-NFκB cells stimulated with hIL36α, inhibition rate % [5]","IC50; NFκB-luciferase reporter in 293T-hIL36R-NFκB cells stimulated with hIL36γ, inhibition rate % [6]","IC50; IL-8 production of OVCAR8 cells stimulated with hIL36β, inhibition rate % [7]","IC50; NFκB-luciferase reporter in 293T-hIL36R-NFκB cells stimulated with hIL36β, inhibition rate % [8]",EC50 [9],"IC50; IL-8 production of NHK cells stimulated with hIL36α, inhibition rate % [10]","IC50; IL-8 production of OVCAR8 cells stimulated with hIL36β, inhibition rate % [11]",Binder
~13.2 nM,92.7 pM,3.62 nM,59.2 pM,27.7 nM,4.74 nM,75.5 pM,5.02 nM,7.02 nM,214 pM,86.1 pM,"BI655130 (antibody, human IgG1, kappa, L234A L235A, also called Spesolimab) heavy: not shown light: QIVLTQSPGTLSLSPGERATMTCTASSSVSSSYFHWYQQKPGQAPRLWIYRTSRLASGVPDRFSGSGSGTDFTLTISRLEPEDAATYYCHQFHRSPLTFGAGTKLEIKRTVAAPSVFIFPPSDEQLKSGTASVVCLLNNFYPREAKVQWKVDNALQSGNSQESVTEQDSKDSTYSLSSTLTLSKADYEKHKVYACEVTHQGLSSPVTKSFNRGEC"
,,8 nM,,3.32 nM,10.5 nM,116 pM,7.51 nM,6.47 nM,,,"chimeric 72C1 antibody (antibody, human IgG4 S228P, kappa, Mouse variable regions on human IgG4 / kappa; also called xi72C1) heavy: not shown light: EILLTQSPAIMSATLGEKVTMSCRASSNVRYMYWYQLKSGASPKLWIYLTSNLASGVPARFSGSGSGTSYSLTISSVEAEDAATYFCQQFTTSPYTFGGGTKLEIKRTVAAPSVFIFPPSDEQLKSGTASVVCLLNNFYPREAKVQWKVDNALQSGNSQESVTEQDSKDSTYSLSSTLTLSKADYEKHKVYACEVTHQGLSSPVTKSFNRGEC"
~13.2 nM,18.1 pM,,18.1 pM,,,,,,1020 pM,113 pM,"chimeric 84C4 antibody (antibody, human IgG4 S228P, kappa, Mouse variable regions on human IgG4 / kappa; also called xi84C4) heavy: not shown light: DILMTQSPSSLSASLGERVSLTCRASQDIGNALNWLQQAPDGTIKRLIYATSSLDPGVPKRFSGSRSGSDYSLTISSLASEDFVYYYCLQYASSPYTFGGGTKLEIKRTVAAPSVFIFPPSDEQLKSGTASVVCLLNNFYPREAKVQWKVDNALQSGNSQESVTEQDSKDSTYSLSSTLTLSKADYEKHKVYACEVTHQGLSSPVTKSFNRGEC"
